Data on 81 substances can be found in the Human Domainome abundance scans (Beltran et al. 2025).

± gives the uncertainty stated by the source.

A short description of the data set: abundance fitness (aPCA) (normalised: wild type 0, dead -1); higher = more abundant; growth selection in yeast, the domain comes from the species named. To be noted: Homo sapiens.
On to “BAG family molecular chaperone regulator 3 N43C, O95817”, for which the abundance fitness was -0.681 ± 0.38.

For “BAG family molecular chaperone regulator 3 N43D, O95817”, the abundance fitness was -0.622 ± 0.31.

“BAG family molecular chaperone regulator 3 N43G, O95817”: the abundance fitness was -0.531 ± 0.14.

As for “BAG family molecular chaperone regulator 3 N43H, O95817”, the abundance fitness is -0.384 ± 0.38.

As for “BAG family molecular chaperone regulator 3 N43K, O95817”, the abundance fitness was -0.648 ± 0.24.

As for “BAG family molecular chaperone regulator 3 N43L, O95817”, the abundance fitness was -0.629 ± 0.12.

As to “BAG family molecular chaperone regulator 3 N43P, O95817”, the abundance fitness is -0.42 ± 0.3.

Take “BAG family molecular chaperone regulator 3 N43Q, O95817”: the abundance fitness is -0.435 ± 0.43.

Regarding “BAG family molecular chaperone regulator 3 N43R, O95817”, the abundance fitness was -0.549 ± 0.12.

Consider “BAG family molecular chaperone regulator 3 N43S, O95817”, for which the abundance fitness turned out to be 0.004 ± 0.2.

For “BAG family molecular chaperone regulator 3 N43T, O95817”, the abundance fitness is -0.416 ± 0.085.

Consider “BAG family molecular chaperone regulator 3 N43V, O95817”, for which the abundance fitness was -0.418 ± 0.12.

“BAG family molecular chaperone regulator 3 N43W, O95817”: the abundance fitness is -0.415 ± 0.42.

Consider “BAG family molecular chaperone regulator 3 N43Y, O95817”, for which the abundance fitness was -0.366 ± 0.4.

Take “BAG family molecular chaperone regulator 3 N50A, O95817”: the abundance fitness worked out at 0.249 ± 0.15.

“BAG family molecular chaperone regulator 3 N50C, O95817” gave an abundance fitness of 0.032 ± 0.13.

Turning to “BAG family molecular chaperone regulator 3 N50D, O95817”, the abundance fitness is -0.126 ± 0.2.

The substance “BAG family molecular chaperone regulator 3 N50E, O95817” displayed an abundance fitness of 0.063 ± 0.096.

The substance “BAG family molecular chaperone regulator 3 N50F, O95817” came in with an abundance fitness of 0.181 ± 0.11.

Regarding “BAG family molecular chaperone regulator 3 N50G, O95817”, the abundance fitness is -0.358 ± 0.13.

With “BAG family molecular chaperone regulator 3 N50H, O95817”, the abundance fitness was -0.166 ± 0.19.

For the substance “BAG family molecular chaperone regulator 3 N50I, O95817”, the abundance fitness was found to be 0.656 ± 0.23.

As to “BAG family molecular chaperone regulator 3 N50K, O95817”, the abundance fitness was -0.176 ± 0.11.

Regarding “BAG family molecular chaperone regulator 3 N50L, O95817”, the abundance fitness was -0.181 ± 0.17.

As for “BAG family molecular chaperone regulator 3 N50M, O95817”, the abundance fitness was -0.255 ± 0.086.

Regarding “BAG family molecular chaperone regulator 3 N50P, O95817”, the abundance fitness is -0.353 ± 0.31.

As to “BAG family molecular chaperone regulator 3 N50Q, O95817”, the abundance fitness was -0.176 ± 0.1.

Turning to “BAG family molecular chaperone regulator 3 N50R, O95817”, the abundance fitness was -0.034 ± 0.13.

With “BAG family molecular chaperone regulator 3 N50S, O95817”, the abundance fitness was -0.26 ± 0.085.

Consider “BAG family molecular chaperone regulator 3 N50T, O95817”, for which the abundance fitness is -0.435 ± 0.11.

Consider “BAG family molecular chaperone regulator 3 N50W, O95817”, for which the abundance fitness was determined as 0.441 ± 0.15.

“BAG family molecular chaperone regulator 3 N50Y, O95817”: the abundance fitness was 0.235 ± 0.16.

With “BAG family molecular chaperone regulator 3 P21A, O95817”, the abundance fitness amounted to 0.383 ± 0.085.

“BAG family molecular chaperone regulator 3 P21C, O95817” came in with an abundance fitness of 0.548 ± 0.1.

As for “BAG family molecular chaperone regulator 3 P21D, O95817”, the abundance fitness is -0.124 ± 0.16.

In turn, “BAG family molecular chaperone regulator 3 P21E, O95817” returned an abundance fitness of 0.307 ± 0.12.

“BAG family molecular chaperone regulator 3 P21F, O95817” had an abundance fitness of 0.097 ± 0.21.

With “BAG family molecular chaperone regulator 3 P21G, O95817”, the abundance fitness was determined as 0.43 ± 0.057.

In the case of “BAG family molecular chaperone regulator 3 P21H, O95817”, the abundance fitness was -0.103 ± 0.26.

Take “BAG family molecular chaperone regulator 3 P21K, O95817”: the abundance fitness turned out to be 0.439 ± 0.059.

Turning to “BAG family molecular chaperone regulator 3 P21L, O95817”, the abundance fitness was -0.112 ± 0.094.

As for “BAG family molecular chaperone regulator 3 P21M, O95817”, the abundance fitness turned out to be 0.673 ± 0.18.

For “BAG family molecular chaperone regulator 3 P21N, O95817”, the abundance fitness is -0.081 ± 0.21.

As to “BAG family molecular chaperone regulator 3 P21Q, O95817”, the abundance fitness is 0.192 ± 0.063.

“BAG family molecular chaperone regulator 3 P21R, O95817” registered an abundance fitness of 0.382 ± 0.081.

Regarding “BAG family molecular chaperone regulator 3 P21S, O95817”, the abundance fitness was 0.349 ± 0.089.

For the substance “BAG family molecular chaperone regulator 3 P21V, O95817”, the abundance fitness turned out to be 0.443 ± 0.063.

“BAG family molecular chaperone regulator 3 P21W, O95817”: the abundance fitness was -0.543 ± 0.086.

In the case of “BAG family molecular chaperone regulator 3 P21Y, O95817”, the abundance fitness is -0.152 ± 0.21.

In the case of “BAG family molecular chaperone regulator 3 P23A, O95817”, the abundance fitness is -0.378 ± 0.16.

On to “BAG family molecular chaperone regulator 3 P23C, O95817”, for which the abundance fitness was -0.932 ± 0.19.

On to “BAG family molecular chaperone regulator 3 P23E, O95817”, for which the abundance fitness is -0.544 ± 0.14.

Consider “BAG family molecular chaperone regulator 3 P23F, O95817”, for which the abundance fitness was -0.697 ± 0.44.

For the substance “BAG family molecular chaperone regulator 3 P23G, O95817”, the abundance fitness is -0.622 ± 0.18.

Take “BAG family molecular chaperone regulator 3 P23H, O95817”: the abundance fitness came to 0.173 ± 0.23.

Consider “BAG family molecular chaperone regulator 3 P23I, O95817”, for which the abundance fitness was -0.612 ± 0.22.

As for “BAG family molecular chaperone regulator 3 P23K, O95817”, the abundance fitness was -0.604 ± 0.094.

Take “BAG family molecular chaperone regulator 3 P23L, O95817”: the abundance fitness is -0.858 ± 0.2.

Take “BAG family molecular chaperone regulator 3 P23M, O95817”: the abundance fitness was -0.772 ± 0.34.

For “BAG family molecular chaperone regulator 3 P23Q, O95817”, the abundance fitness is -0.83 ± 0.33.

Take “BAG family molecular chaperone regulator 3 P23S, O95817”: the abundance fitness is -0.864 ± 0.26.

On to “BAG family molecular chaperone regulator 3 P23W, O95817”, for which the abundance fitness is -0.692 ± 0.095.

Take “BAG family molecular chaperone regulator 3 P23Y, O95817”: the abundance fitness is -0.54 ± 0.29.

In the case of “BAG family molecular chaperone regulator 3 P24A, O95817”, the abundance fitness was -0.464 ± 0.096.

For the substance “BAG family molecular chaperone regulator 3 P24C, O95817”, the abundance fitness was -0.489 ± 0.29.

Regarding “BAG family molecular chaperone regulator 3 P24D, O95817”, the abundance fitness was -0.597 ± 0.36.

In the case of “BAG family molecular chaperone regulator 3 P24F, O95817”, the abundance fitness was -0.383 ± 0.31.

For the substance “BAG family molecular chaperone regulator 3 P24G, O95817”, the abundance fitness is -0.77 ± 0.22.

On to “BAG family molecular chaperone regulator 3 P24K, O95817”, for which the abundance fitness came out at 0.269 ± 0.16.

“BAG family molecular chaperone regulator 3 P24M, O95817”: the abundance fitness was -0.662 ± 0.21.

“BAG family molecular chaperone regulator 3 P24N, O95817” came in with an abundance fitness of 0.135 ± 0.24.

For the substance “BAG family molecular chaperone regulator 3 P24Q, O95817”, the abundance fitness was -0.21 ± 0.14.

As for “BAG family molecular chaperone regulator 3 P24R, O95817”, the abundance fitness was -0.037 ± 0.085.

As for “BAG family molecular chaperone regulator 3 P24S, O95817”, the abundance fitness is 0.456 ± 0.099.

As for “BAG family molecular chaperone regulator 3 P24T, O95817”, the abundance fitness was -0.036 ± 0.086.

Turning to “BAG family molecular chaperone regulator 3 P24V, O95817”, the abundance fitness is -0.784 ± 0.23.

For the substance “BAG family molecular chaperone regulator 3 P24W, O95817”, the abundance fitness was -0.659 ± 0.21.

As to “BAG family molecular chaperone regulator 3 P24Y, O95817”, the abundance fitness is -0.31 ± 0.28.

For “BAG family molecular chaperone regulator 3 P32A, O95817”, the abundance fitness was -0.735 ± 0.17.

For the substance “BAG family molecular chaperone regulator 3 P32D, O95817”, the abundance fitness was -0.64 ± 0.39.

Regarding “BAG family molecular chaperone regulator 3 P32E, O95817”, the abundance fitness was -0.285 ± 0.13.
